Experimental data as given in US12678474B2, “Screening of fixed-point coupling sites of cysteine-modified antibody-toxin conjugate (TDC)” (SICHUAN BAILI PHARMACEUTICAL CO. LTD., priority 2017, dated 2026).

What was measured:
[1] = target: T1, Recombinant EGFRVIII-His*6 antigen (Homo sapiens, UniProt P00533, DELINS30-297G); assay: ELISA relative affinity for EGFRvIII; format: binding; settings: for EC50: EGFRvIII-coated plates, A450, read-out: EC50 (nM), mutant antibody affinity
T1 construct: His*6
Excerpt: Insertion Mutation Modification and Parent Antibody 2A1 for EGFRvIII • ELISA was used to compare the relative affinities of 2A1-LC-Cys110ins-mc-vc-PAB-MMAE TDC, 2A1-LC-Cys111ins-mc-vc-PAB-MMAE TDC, 2A1-LC-Cys142ins-mc-vc-PAB-MMAE TDC, 2A1-HC-Cys254ins-mc-vc-PAB-MMAE TDC, 2A1-HC-Cys255ins-mc-vc-PAB-MMAE TDC, 2A1-HC-Cys258ins-mc-vc-PAB-MMAE TDC, 2A1-HC-Cys259ins-mc-vc-PAB-MMAE TDC, 2A1-HC-Cys354ins-mc-vc-PAB-MMAE TDC, 2A1-HC-Cys355ins-mc-vc-PAB-MMAE TDC, 2A1-HC-Cys357ins-mc-vc-PAB-MMAE TDC, 2A1-HC-Cys378ins-mc-vc-PAB-MMAE TDC, 2A1-HC-Cys379ins-mc-vc-PAB-MMAE TDC, 2A1-HC-Cys386ins-mc-vc-PAB-MMAE TDC, 2A1-HC-Cys387ins-mc-vc-PAB-MMAE TDC, 2A1-HC-Cys410ins-mc-vc-PAB-MMAE TDC, and 2A1 for EGFRvIII. The specific process used was as follows:
Recombinant […]-His*6 antigen was used to coat plates; fish skin gelatin was used as a seal; dilution of each insertion mutant antibody was performed separately, up to a maximum concentration 10 μg/ml and a 4-fold gradient dilution was performed for a total of 11 concentrations; HRP-labeled secondary antibodies were used for incubation; TMB was used for development and absorption detection was performed at 450 nm.

[2] = system: EGFRwt-overexpressing human skin squamous cell carcinoma cell line A431; assay: MTS cytotoxicity (cell viability) assay, A431; format: cell-based; settings: antibodies; 72 hours
Experimental: (§1) TDC cytotoxic activity was determined via the following experimental procedure: TDC was added to EGFR-overexpressing or […]-expressing human tumor cell culture medium, and cell viability was determined after 72 hours of cell culture. Cell-based in vitro experiments were used to determine cell viability, cytotoxicity and programmed cell death induced by TDC constituted by the present invention.
(§2) In vitro efficacy of antibody-toxin conjugates was determined via a cell proliferation assay. A CellTiter ^96® AqueousOne Solution Cell was Proliferation Assay purchased commercially from Promega Corp. (Madison, WI). CellTiter ^96® Aqueous One Solution Cell Proliferation Assay (a) is a colorimetric method used to detect the number of living cells in cell proliferation and cytotoxicity experiments. The above reagent contains the novel tetrazole compound [3-(4,5-dimethylthiazol-2-yl)-5-(3-carboxymethoxyphenyl)-2-(4-sulfophenyl)-2H-tetrazolium, inner salt; MTS) as well as an electronic coupling agent (phenazine ethosulfate; PES). […] This convenient “single solution” model is an improvement on the first generation of the CellTiter ^96® Aqueous Assay, in which the electronic coupling agent PMS was supplied separately from the MTS solution. MTS (Owen's reagent) is reduced by cellular organisms into a colored formazan product, which can be directly dissolved in culture medium (FIG. 1). This conversion is likely facilitated by NADPH NADH produced by dehydrogenase present in metabolically active cells. For the assay, a small amount of CellTiter ^96® Aqueous One Solution Reagent is added directly to the medium present in the wells of the culture plate, after which incubation is performed for 1 to 4 hours, followed by reading of the absorbance value at 490 nm using a microplate reader.
(§3) The amount of formazan product detected at 490 nm is proportional to the number of viable cells in culture. Because the formazan product of MTS is soluble in tissue culture medium, CellTiter ^96® Aqueous One Solution Assay requires fewer steps than the MTT or INT methods. A431 (EGFR-overexpressing cells) and U87-[…] (an […] mutant stable cell line) were used in the present invention as an investigative system for performing in vitro efficacy assays. In 96-well plates, cells were plated at 6000 cells/well and 24 hours later, antibody spiking was carried out. […] Cell viability was assayed via MTS 72 hours after treatment.

[3] = system: EFGRvIII-overexpressing human glioma cell line U87-EGFRvIII; assay: MTS cytotoxicity (cell viability) assay, U87-EGFRvIII; format: cell-based; settings: antibodies; 72 hours; read-out: IC50, U87MG-EGFRvIII (MTS)
Experimental: as §1, §2, §3

B1: 2A1-HC-Cys379ins: 2A1 antibody with cysteine inserted at heavy chain position 379 (SEQ ID NO: 38) (antibody)
heavy: DVQLQESGPSLVKPSQSLSLTCTVTGYSITSDFAWNWIRQFPGNKLEWMGYISYSGNTRYNPSLKSRISITRDTSKNQFFLQLNSVTIEDTATYYCVTAGRGFPYWGQGTLVTVSAASTKGPSVFPLAPSSKSTSGGTAALGCLVKDYFPEPVTVSWNSGALTSGVHTFPAVLQSSGLYSLSSVVTVPSSSLGTQTYICNVNHKPSNTKVDKRVEPKSCDKTHTCPPCPAPEFLGGPSVFLFPPKPKDTLMISRTPEVTCVVVDVSHEDPEVKFNWYVDGVEVHNAKTKPREEQYNSTYRVVSVLTVLHQDWLNGKEYKCKVSNKALPAPIEKTISKAKGQPREPQVYTLPPSRDELTKNQVSLTCLVKGFYPSDIAVEWECSNGQPENNYKTTPPVLDSDGSFFLYSKLTVDKSRWQQGNVFSCSVMHEALHNHYTQKSLSLSPG
light: DILMTQSPSSMSVSLGDTVSITCHSSQDINSNIGWLQQRPGKSFKGLIYHGTNLDDEVPSRFSGSGSGADYSLTISSLESEDFADYYCVQYAQFPWTFGGGTKLEIKRTVAAPSVFIFPPSDEQLKSGTASVVCLLNNFYPREAKVQWKVDNALQSGNSQESVTEQDSKDSTYSLSSTLTLSKADYEKHKVYACEVTHQGLSSPVTKSFNRGEC
B1 was tested, and the “Affinity for EGFRvIII relative to 2A1 (in words)” value [1] was “maintained 2A1 affinity”, the EC50 [1] was 0.0409 nM and the IC50 [2] was > 10 µM. For the same molecule, the IC50 [3] was > 10 µM.

B2: 2A1-HC-Cys255ins: 2A1 antibody with cysteine inserted at heavy chain position 255 (SEQ ID NO: 24) (antibody)
heavy: DVQLQESGPSLVKPSQSLSLTCTVTGYSITSDFAWNWIRQFPGNKLEWMGYISYSGNTRYNPSLKSRISITRDTSKNQFFLQLNSVTIEDTATYYCVTAGRGFPYWGQGTLVTVSAASTKGPSVFPLAPSSKSTSGGTAALGCLVKDYFPEPVTVSWNSGALTSGVHTFPAVLQSSGLYSLSSVVTVPSSSLGTQTYICNVNHKPSNTKVDKRVEPKSCDKTHTCPPCPAPEFLGGPSVFLFPPKPKDTLMISRTPECVTCVVVDVSHEDPEVKFNWYVDGVEVHNAKTKPREEQYNSTYRVVSVLTVLHQDWLNGKEYKCKVSNKALPAPIEKTISKAKGQPREPQVYTLPPSRDELTKNQVSLTCLVKGFYPSDIAVEWESNGQPENNYKTTPPVLDSDGSFFLYSKLTVDKSRWQQGNVFSCSVMHEALHNHYTQKSLSLSPG
light: DILMTQSPSSMSVSLGDTVSITCHSSQDINSNIGWLQQRPGKSFKGLIYHGTNLDDEVPSRFSGSGSGADYSLTISSLESEDFADYYCVQYAQFPWTFGGGTKLEIKRTVAAPSVFIFPPSDEQLKSGTASVVCLLNNFYPREAKVQWKVDNALQSGNSQESVTEQDSKDSTYSLSSTLTLSKADYEKHKVYACEVTHQGLSSPVTKSFNRGEC
B2 was tested, and the “Affinity for EGFRvIII relative to 2A1 (in words)” value [1] was “maintained 2A1 affinity”, the EC50 [1] was 0.039 nM and the IC50 [2] was > 10 µM. For the same molecule, the IC50 [3] was > 10 µM.

B3: 2A1-HC-Cys386ins: 2A1 antibody with cysteine inserted at heavy chain position 386 (SEQ ID NO: 40) (antibody)
heavy: DVQLQESGPSLVKPSQSLSLTCTVTGYSITSDFAWNWIRQFPGNKLEWMGYISYSGNTRYNPSLKSRISITRDTSKNQFFLQLNSVTIEDTATYYCVTAGRGFPYWGQGTLVTVSAASTKGPSVFPLAPSSKSTSGGTAALGCLVKDYFPEPVTVSWNSGALTSGVHTFPAVLQSSGLYSLSSVVTVPSSSLGTQTYICNVNHKPSNTKVDKRVEPKSCDKTHTCPPCPAPEFLGGPSVFLFPPKPKDTLMISRTPEVTCVVVDVSHEDPEVKFNWYVDGVEVHNAKTKPREEQYNSTYRVVSVLTVLHQDWLNGKEYKCKVSNKALPAPIEKTISKAKGQPREPQVYTLPPSRDELTKNQVSLTCLVKGFYPSDIAVEWESNGQPENCNYKTTPPVLDSDGSFFLYSKLTVDKSRWQQGNVFSCSVMHEALHNHYTQKSLSLSPG
light: DILMTQSPSSMSVSLGDTVSITCHSSQDINSNIGWLQQRPGKSFKGLIYHGTNLDDEVPSRFSGSGSGADYSLTISSLESEDFADYYCVQYAQFPWTFGGGTKLEIKRTVAAPSVFIFPPSDEQLKSGTASVVCLLNNFYPREAKVQWKVDNALQSGNSQESVTEQDSKDSTYSLSSTLTLSKADYEKHKVYACEVTHQGLSSPVTKSFNRGEC
For B3, the “Affinity for EGFRvIII relative to 2A1 (in words)” value [1] was “maintained 2A1 affinity”, the EC50 [1] was 0.0435 nM and the IC50 [2] was > 10 µM. The IC50 [3] was > 10 µM.

B4: 2A1-HC-Cys258ins: 2A1 antibody with cysteine inserted at heavy chain position 258 (SEQ ID NO: 26) (antibody)
heavy: DVQLQESGPSLVKPSQSLSLTCTVTGYSITSDFAWNWIRQFPGNKLEWMGYISYSGNTRYNPSLKSRISITRDTSKNQFFLQLNSVTIEDTATYYCVTAGRGFPYWGQGTLVTVSAASTKGPSVFPLAPSSKSTSGGTAALGCLVKDYFPEPVTVSWNSGALTSGVHTFPAVLQSSGLYSLSSVVTVPSSSLGTQTYICNVNHKPSNTKVDKRVEPKSCDKTHTCPPCPAPEFLGGPSVFLFPPKPKDTLMISRTPEVTCCVVVDVSHEDPEVKFNWYVDGVEVHNAKTKPREEQYNSTYRVVSVLTVLHQDWLNGKEYKCKVSNKALPAPIEKTISKAKGQPREPQVYTLPPSRDELTKNQVSLTCLVKGFYPSDIAVEWESNGQPENNYKTTPPVLDSDGSFFLYSKLTVDKSRWQQGNVFSCSVMHEALHNHYTQKSLSLSPG
light: DILMTQSPSSMSVSLGDTVSITCHSSQDINSNIGWLQQRPGKSFKGLIYHGTNLDDEVPSRFSGSGSGADYSLTISSLESEDFADYYCVQYAQFPWTFGGGTKLEIKRTVAAPSVFIFPPSDEQLKSGTASVVCLLNNFYPREAKVQWKVDNALQSGNSQESVTEQDSKDSTYSLSSTLTLSKADYEKHKVYACEVTHQGLSSPVTKSFNRGEC
B4 was tested, and the “Affinity for EGFRvIII relative to 2A1 (in words)” value [1] was “maintained 2A1 affinity”, the EC50 [1] was 0.0423 nM and the IC50 [2] was > 10 µM. The IC50 [3] was > 10 µM.

B5: 2A1-HC-Cys254ins: 2A1 antibody with cysteine inserted at heavy chain position 254 (SEQ ID NO: 22) (antibody)
heavy: DVQLQESGPSLVKPSQSLSLTCTVTGYSITSDFAWNWIRQFPGNKLEWMGYISYSGNTRYNPSLKSRISITRDTSKNQFFLQLNSVTIEDTATYYCVTAGRGFPYWGQGTLVTVSAASTKGPSVFPLAPSSKSTSGGTAALGCLVKDYFPEPVTVSWNSGALTSGVHTFPAVLQSSGLYSLSSVVTVPSSSLGTQTYICNVNHKPSNTKVDKRVEPKSCDKTHTCPPCPAPEFLGGPSVFLFPPKPKDTLMISRTPCEVTCVVVDVSHEDPEVKFNWYVDGVEVHNAKTKPREEQYNSTYRVVSVLTVLHQDWLNGKEYKCKVSNKALPAPIEKTISKAKGQPREPQVYTLPPSRDELTKNQVSLTCLVKGFYPSDIAVEWESNGQPENNYKTTPPVLDSDGSFFLYSKLTVDKSRWQQGNVFSCSVMHEALHNHYTQKSLSLSPG
light: DILMTQSPSSMSVSLGDTVSITCHSSQDINSNIGWLQQRPGKSFKGLIYHGTNLDDEVPSRFSGSGSGADYSLTISSLESEDFADYYCVQYAQFPWTFGGGTKLEIKRTVAAPSVFIFPPSDEQLKSGTASVVCLLNNFYPREAKVQWKVDNALQSGNSQESVTEQDSKDSTYSLSSTLTLSKADYEKHKVYACEVTHQGLSSPVTKSFNRGEC
With B5 the “Affinity for EGFRvIII relative to 2A1 (in words)” value [1] was “maintained 2A1 affinity”, the EC50 [1] was 0.0456 nM and the IC50 [2] was > 10 µM. The IC50 [3] was > 10 µM.
